The values that follow come from PMC10693564 (Nature Communications, 2023).

This assay has as its target T1, UBE1L (1-1012aa) (UniProt P41226 1-1012).
T1 construct: In the cryo-EM sample its active-site cysteine was disulfide-linked to Cys86 of UBE2L6; also called UBA7; not shown: GST, N-terminal, cleaved
T1 sequence (looked up): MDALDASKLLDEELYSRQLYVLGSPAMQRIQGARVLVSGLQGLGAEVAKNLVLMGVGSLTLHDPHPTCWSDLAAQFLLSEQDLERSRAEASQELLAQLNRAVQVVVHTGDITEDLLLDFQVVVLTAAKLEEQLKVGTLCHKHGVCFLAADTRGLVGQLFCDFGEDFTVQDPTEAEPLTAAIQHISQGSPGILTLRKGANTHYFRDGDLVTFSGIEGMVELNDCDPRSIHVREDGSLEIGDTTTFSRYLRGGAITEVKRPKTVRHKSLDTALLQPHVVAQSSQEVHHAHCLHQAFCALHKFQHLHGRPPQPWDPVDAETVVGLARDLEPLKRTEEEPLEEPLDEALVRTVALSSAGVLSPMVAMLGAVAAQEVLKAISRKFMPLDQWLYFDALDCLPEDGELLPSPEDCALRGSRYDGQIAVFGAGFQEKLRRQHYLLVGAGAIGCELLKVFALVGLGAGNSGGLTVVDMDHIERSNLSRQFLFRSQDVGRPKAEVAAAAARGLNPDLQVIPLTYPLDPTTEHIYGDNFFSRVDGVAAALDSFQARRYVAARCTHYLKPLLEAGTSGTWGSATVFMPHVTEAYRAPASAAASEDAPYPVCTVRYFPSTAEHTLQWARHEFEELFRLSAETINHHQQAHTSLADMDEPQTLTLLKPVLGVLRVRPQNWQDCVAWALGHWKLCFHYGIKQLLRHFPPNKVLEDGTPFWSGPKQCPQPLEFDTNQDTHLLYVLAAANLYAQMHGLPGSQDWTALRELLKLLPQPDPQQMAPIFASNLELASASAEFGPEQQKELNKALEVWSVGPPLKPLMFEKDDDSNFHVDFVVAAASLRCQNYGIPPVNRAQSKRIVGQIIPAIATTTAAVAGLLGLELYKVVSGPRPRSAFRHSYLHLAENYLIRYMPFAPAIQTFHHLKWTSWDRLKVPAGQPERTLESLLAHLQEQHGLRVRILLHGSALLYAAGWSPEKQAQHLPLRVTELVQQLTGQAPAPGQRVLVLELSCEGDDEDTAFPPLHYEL
The experiment in a line: cryo-EM structure. Particulars: both partners purified.

B1: UBE2L6^C86only (enzyme)
chain: MMASMRVVKELEDLQKKPPPYLRNLSSDDANVLVWHALLLPDQPPYHLKAFNLRISFPPEYPFKPPMIKFTTKIYHPNVDENGQICLPIISSENWKPSTKTSQVLEALNVLVNRPNIREPLRMDLADLLTQNPELFRKNAEEFTLRFGVDRPS
notes: non-catalytic cysteines mutated to serine; also called UBE2L6(C98S/C102S); UbcH8; not shown: 6xHis, N-terminal, cleaved; GST, N-terminal, cleaved
Regarding B1, the binding result was “binds”.
